The record followed here is US20190322765A1 (Hoffmann-La Roche, published 2019).

Assay [1] deals with T1, IL-2R βγ heterodimer on human cells (NK92 cells, NK and T cells of PBMC) (human, UniProt P14784 27-551; P31785 23-369).
T1 sequence (looked up) 1: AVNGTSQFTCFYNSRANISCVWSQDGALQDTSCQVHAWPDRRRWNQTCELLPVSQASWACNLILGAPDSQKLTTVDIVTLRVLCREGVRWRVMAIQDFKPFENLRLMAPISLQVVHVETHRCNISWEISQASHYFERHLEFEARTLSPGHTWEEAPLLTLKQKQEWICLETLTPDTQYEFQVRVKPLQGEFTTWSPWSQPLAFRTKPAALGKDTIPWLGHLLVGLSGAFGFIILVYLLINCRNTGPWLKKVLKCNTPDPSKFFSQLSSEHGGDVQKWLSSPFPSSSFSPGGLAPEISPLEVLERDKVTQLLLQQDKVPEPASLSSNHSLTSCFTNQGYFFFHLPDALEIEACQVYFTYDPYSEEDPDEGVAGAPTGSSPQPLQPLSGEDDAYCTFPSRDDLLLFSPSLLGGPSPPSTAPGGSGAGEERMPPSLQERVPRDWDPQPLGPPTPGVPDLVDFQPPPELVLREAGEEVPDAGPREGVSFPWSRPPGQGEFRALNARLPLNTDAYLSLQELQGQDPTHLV
T1 sequence (looked up) 2: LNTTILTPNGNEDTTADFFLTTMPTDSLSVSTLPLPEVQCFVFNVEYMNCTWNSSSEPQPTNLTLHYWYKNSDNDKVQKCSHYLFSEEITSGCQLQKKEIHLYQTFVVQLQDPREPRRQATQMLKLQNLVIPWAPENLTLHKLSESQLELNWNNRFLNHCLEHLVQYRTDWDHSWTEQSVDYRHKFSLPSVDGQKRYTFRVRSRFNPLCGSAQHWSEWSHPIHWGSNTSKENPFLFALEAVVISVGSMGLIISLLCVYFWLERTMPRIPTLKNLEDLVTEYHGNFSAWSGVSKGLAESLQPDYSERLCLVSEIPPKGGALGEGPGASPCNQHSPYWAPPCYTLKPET
The assay can be described thus: cell-based or functional assay.

In assay [2] the target is T2, cynomolgus IL-2R α-subunit, recombinant monomeric (cynomolgus, UniProt H6WS54 22-240).
T2 construct: also called Cyno IL-2R α
T2 sequence: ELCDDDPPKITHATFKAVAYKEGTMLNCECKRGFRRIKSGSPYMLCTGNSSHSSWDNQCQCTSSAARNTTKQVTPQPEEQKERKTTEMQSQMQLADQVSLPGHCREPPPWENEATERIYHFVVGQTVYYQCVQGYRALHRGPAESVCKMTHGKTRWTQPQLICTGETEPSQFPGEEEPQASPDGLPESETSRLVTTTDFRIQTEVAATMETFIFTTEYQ
The assay can be described thus: SPR, receptor on CM5, 25°C.

Assay [3] concerns the target T3, murine IL-2R α-subunit, recombinant monomeric (murine, UniProt P01590 22-236, limits assumed).
T3 construct: also called Mu IL-2R α
T3 sequence (looked up): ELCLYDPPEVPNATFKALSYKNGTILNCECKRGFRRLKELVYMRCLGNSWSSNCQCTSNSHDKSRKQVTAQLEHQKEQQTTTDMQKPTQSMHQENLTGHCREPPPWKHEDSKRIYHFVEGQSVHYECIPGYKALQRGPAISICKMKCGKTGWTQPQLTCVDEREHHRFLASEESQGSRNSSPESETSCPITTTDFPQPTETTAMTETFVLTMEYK
In words: SPR, receptor on CM5, 25°C.

The target in assay [4] is T4, human IL-2R α-subunit, monomeric, with AcTev cleavage site and Avi His tag (human).
T4 construct: also called Hu IL-2R α; CD25
T4 chain: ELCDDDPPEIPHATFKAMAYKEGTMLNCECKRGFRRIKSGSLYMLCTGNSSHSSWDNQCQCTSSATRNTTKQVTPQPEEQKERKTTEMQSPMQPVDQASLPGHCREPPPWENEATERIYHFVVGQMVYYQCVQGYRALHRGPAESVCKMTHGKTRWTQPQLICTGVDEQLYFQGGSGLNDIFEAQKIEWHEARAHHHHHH
The assay can be described thus: SPR, receptor on CM5, 25°C.

Assay [5] has as its target T5, human FAP expressed on stably transfected HEK293 cells (human, UniProt Q12884 1-760).
T5 construct: whole, on cells
The assay can be described thus: FACS on FAP-expressing HEK cells.

Assay [6] addresses T6, cynomolgus IL-2R βγ heterodimer (β knob γ hole Fc fusion) (cynomolgus).
T6 construct: also called Cyno IL-2R βγ
The assay can be described thus: SPR, receptor on CM5, 25°C, 1:1 fit.

Assay [7] addresses T7, human IL-2R βγ heterodimer, subunit-Fc knobs-into-holes fusion (human).
T7 construct: The entries may hold a leader peptide; also called Hu IL-2R βγ; human IL2-R β knob γ hole heterodimer
The assay can be described thus: SPR, receptor on CM5, 25°C, 1:1 fit.

The target in assay [8] is T8, murine IL-2R βγ heterodimer (β knob γ hole Fc fusion) (murine, UniProt P16297 27-240; P34902 23-263).
T8 construct: also called Mu IL-2R βγ; mouse IL-2R βγ heterodimer; not shown: Fc knob/hole part
T8 sequence (looked up) 1: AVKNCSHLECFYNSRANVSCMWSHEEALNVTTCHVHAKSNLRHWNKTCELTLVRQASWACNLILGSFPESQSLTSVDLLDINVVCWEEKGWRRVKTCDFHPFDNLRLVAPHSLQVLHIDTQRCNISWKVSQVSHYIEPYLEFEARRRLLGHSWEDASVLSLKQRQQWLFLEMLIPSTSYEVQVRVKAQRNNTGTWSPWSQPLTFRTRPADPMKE
T8 sequence (looked up) 2: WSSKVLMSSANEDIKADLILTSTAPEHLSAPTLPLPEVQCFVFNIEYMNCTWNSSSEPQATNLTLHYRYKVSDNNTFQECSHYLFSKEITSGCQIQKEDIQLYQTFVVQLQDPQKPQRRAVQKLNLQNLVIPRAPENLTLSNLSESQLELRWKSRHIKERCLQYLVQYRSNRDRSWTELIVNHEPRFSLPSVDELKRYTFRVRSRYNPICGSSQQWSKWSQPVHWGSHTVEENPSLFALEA
The assay can be described thus: SPR, receptor on CM5, 25°C, 1:1 fit.

For assay [9], the target named is T6, cynomolgus IL-2R βγ heterodimer (β knob …). The assay can be described thus: SPR, receptor on CM5, 37°C, 1:1 fit.
Assay [10] addresses T7, human IL-2R βγ heterodimer, subunit-Fc …. The assay can be described thus: SPR, receptor on CM5, 37°C, 1:1 fit.
The target of assay [11] is T8, murine IL-2R βγ heterodimer (β knob γ …). In words: SPR, receptor on CM5, 37°C, 1:1 fit.
Assay [12] addresses T7, human IL-2R βγ heterodimer, subunit-Fc …. The assay can be described thus: SPR, receptor on CM5, 25°C, apparent KD, 1:1 fit.
The target in assay [13] is T5, human FAP expressed on stably …. In words: FACS on HEK 293-human FAP cells, median fluorescence against concentration.
Assay [14] addresses T9, human DPPIV on transfected HEK 293 cells (human, UniProt P27487 1-766).
T9 construct: whole, on cells; also called CD26
In words: FACS on HEK 293-human DPPIV cells, with HEK mock-transfected cells, cells only and sec. antibody as controls; concentration not shown.

In assay [15] the target is FAP on GM05389 fibroblasts. The assay can be described thus: FACS on GM05389 fibroblasts, surface-bound construct detected with secondary antibody after the times shown (internalization analysis); concentration not shown.

Values joined by “and” are separate entries in the source; they are usually repeats but may differ in a detail not shown here. Equal values may be shown once.

B1: 28H1 Fab-IL-2 qm-Fab (other)
chain: EVQLLESGGGLVQPGGSLRLSCAASGFTFSSHAMSWVRQAPGKGLEWVSAIWASGEQYYADSVKGRFTISRDNSKNTLYLQMNSLRAEDTAVYYCAKGWLGNFDYWGQGTLVTVSSASTKGPSVFPLAPSSKSTSGGTAALGCLVKDYFPEPVTVSWNSGALTSGVHTFPAVLQSSGLYSLSSVVTVPSSSLGTQTYICNVNHKPSNTKVDKKVEPKSCDSGGGGSGGGGSGGGGAPASSSTKKTQLQLEHLLLDLQMILNGINNYKNPKLTRMLTAKFAMPKKATELKHLQCLEEELKPLEEVLNGAQSKNFHLRPRDLISNINVIVLELKGSETTFMCEYADETATIVEFLNRWITFAQSIISTLTSGGGGSGGGGSGGGGEVQLLESGGGLVQPGGSLRLSCAASGFTFSSHAMSWVRQAPGKGLEWVSAIWASGEQYYADSVKGRFTISRDNSKNTLYLQMNSLRAEDTAVYYCAKGWLGNFDYWGQGTLVTVSSASTKGPSVFPLAPSSKSTSGGTAALGCLVKDYFPEPVTVSWNSGALTSGVHTFPAVLQSSGLYSLSSVVTVPSSSLGTQTYICNVNHKPSNTKVDKKVEPKSCD
light: EIVLTQSPGTLSLSPGERATLSCRASQSVSRSYLAWYQQKPGQAPRLLIIGASTRATGIPDRFSGSGSGTDFTLTISRLEPEDFAVYYCQQGQVIPPTFGQGTKVEIKRTVAAPSVFIFPPSDEQLKSGTASVVCLLNNFYPREAKVQWKVDNALQSGNSQESVTEQDSKDSTYSLSSTLTLSKADYEKHKVYACEVTHQGLSSPVTKSFNRGEC
notes: Fab-IL-2-Fab immunoconjugate against FAP with quadruple mutant IL-2; also called FAP 28H1 qm
On to B1, for which the “EC50 of STAT5 phosphorylation, CD8+ T cells” value in assay [1] is 20.6 nM. In [1], the “EC50 of STAT5 phosphorylation, NK cells” value was determined as 3.47 nM. In addition, in [1], the “EC50 of STAT5 phosphorylation, Treg cells” value turned out to be 19.7 nM. For the same molecule, the binding result is “no binding (tested: 25 nM)” in [2]; “no binding (tested: 25 nM)” in [3]; “no binding (tested: 300 nM)” in [4]; “no binding” in [14]; “binds” in assay [15]. Besides, it took 0.7 nM to reach a half-maximal effect in assay [5] (EC50). In addition, the Kd is 8.9 nM and 8.4 nM in [6]; 7.5 nM and 6.9 nM in assay [7]; 66 nM and 54 nM in assay [8]; 21.3 nM and 21.2 nM in assay [9]; 14.3 nM and 14.7 nM in assay [10]; 142 nM and 106 nM in [11]. For the same molecule, the Kd in assay [12] was 11.4 nM. Besides, in assay [13], the “EC50 (read off the curve)” value was about 10 nM.
